# Source: patent publication US20210395361A1 (Alector, published 2021)
# Residue numbers refer to the chain shown, from its start.
# T1: Histidine-tagged human Siglec-5 (NovoProtein) (human, UniProt O15389 17-434, limits assumed)
# T1 construct: Bought soluble protein; also called His-tagged human Siglec-5; not shown: histidine tag
# T1 sequence: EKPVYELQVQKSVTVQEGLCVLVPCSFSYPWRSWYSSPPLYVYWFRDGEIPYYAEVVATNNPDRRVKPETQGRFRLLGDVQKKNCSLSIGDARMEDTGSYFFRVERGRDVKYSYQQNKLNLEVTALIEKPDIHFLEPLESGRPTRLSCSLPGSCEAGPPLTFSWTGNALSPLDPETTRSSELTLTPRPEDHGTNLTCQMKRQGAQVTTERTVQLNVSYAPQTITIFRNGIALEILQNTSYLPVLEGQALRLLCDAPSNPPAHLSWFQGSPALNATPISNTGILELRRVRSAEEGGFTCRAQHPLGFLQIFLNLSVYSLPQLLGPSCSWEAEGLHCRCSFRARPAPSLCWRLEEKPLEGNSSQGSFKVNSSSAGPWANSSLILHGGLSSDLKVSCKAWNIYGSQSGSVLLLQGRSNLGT
# T2: human Siglec-5 (human, UniProt O15389 17-551)
# T2 construct: also called CHO-S5; CHO-S hSiglec-5
# T2 sequence: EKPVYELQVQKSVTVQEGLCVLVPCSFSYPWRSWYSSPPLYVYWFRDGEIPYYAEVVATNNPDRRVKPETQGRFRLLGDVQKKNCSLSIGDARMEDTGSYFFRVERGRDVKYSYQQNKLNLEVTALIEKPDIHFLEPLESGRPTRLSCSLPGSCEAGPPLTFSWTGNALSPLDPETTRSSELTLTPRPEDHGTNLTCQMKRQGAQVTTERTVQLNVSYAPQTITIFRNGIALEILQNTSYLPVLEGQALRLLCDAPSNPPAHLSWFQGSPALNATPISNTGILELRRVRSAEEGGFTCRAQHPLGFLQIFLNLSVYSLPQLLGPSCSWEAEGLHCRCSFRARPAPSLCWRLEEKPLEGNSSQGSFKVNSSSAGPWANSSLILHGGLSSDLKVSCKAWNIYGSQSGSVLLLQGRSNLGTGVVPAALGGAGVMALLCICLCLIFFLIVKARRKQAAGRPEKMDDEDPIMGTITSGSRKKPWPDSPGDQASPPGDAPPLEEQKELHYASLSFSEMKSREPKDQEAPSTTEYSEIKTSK
# T3: human Siglec-14 (human, UniProt Q08ET2 17-396)
# T3 construct: also called CHO-S14; CHO-S hSiglec-14
# T3 sequence: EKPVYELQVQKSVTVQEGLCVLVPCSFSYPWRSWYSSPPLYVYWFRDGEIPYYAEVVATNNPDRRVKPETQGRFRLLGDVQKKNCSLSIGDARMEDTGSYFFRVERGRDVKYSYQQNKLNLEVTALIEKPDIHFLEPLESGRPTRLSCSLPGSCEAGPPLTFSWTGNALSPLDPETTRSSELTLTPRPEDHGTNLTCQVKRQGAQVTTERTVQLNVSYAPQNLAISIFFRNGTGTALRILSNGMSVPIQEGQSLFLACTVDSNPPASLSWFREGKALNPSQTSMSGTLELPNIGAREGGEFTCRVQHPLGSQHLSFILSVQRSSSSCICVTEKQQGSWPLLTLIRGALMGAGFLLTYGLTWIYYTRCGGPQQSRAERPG
# B1: S5-G-03 (antibody, V domains shown)
# VH: QAYLQQSGGGLVQPGQSLKLSCAASGFTFSTYGMSWVRQTPDKRLELVATINSNGDNTYYPDSVKGRFTISRDNANNTLYLQMSSLKSEDTAMYFCARAWPSITTVFAPYTLDYWGQGTSVTVSS
# VL: DIVLTQSPAIMSASPGEKVTMTCRASSSVSSSFLHWYQQKSGASPKLWIYSTSNLASGVPTRFSGSGSGTSYSLSISSVEAEDTATYFCQQYSGYPLTFGGGTKLEIK
# notes: Mouse-derived variable domains; expressed in mammalian cells as full antibody; hIgG1 isotype control; also called SG-5-03
# B2: S5-172 (antibody, V domains shown)
# VH: QAYLQQSGPELVKPGASVKVSCKASGYSLTDYNMYWVKQSHGKSLEWIGYIDSYNGGTRYNQKFKGKATLTVDKSSSTAFMHLNSLTSEDSAVYYCAREGFGYDDREWFAYWGQGTLVTVSA
# VL: DIVLTQTPLSLAVSVGEKVTMNCKSSQSLLYSTNQMTFLAWYQQKPGQSPKLLIYWASTRESGVPDRFTGSGSGTDFTLTISSVKAEDLAIYYCQQFYTYPFTFGSGTKLEIR
# notes: Mouse-derived variable domains; expressed in mammalian cells as full antibody; hIgG1 isotype control
# B3: S5-174-H5 (antibody, V domains shown)
# VH: QVQLVQSGAEVKKPGSSVKLSCKASGYTFTNYWMHWVRQAPGQGLEWVGEIDPSDGYVTYAQKFQGRATLTVDKSTSTAYMELSSLRSEDTAVYYCAGVYYGNSIYYAMDYWGQGTLVTVSS
# VL: DIQMTQSPSSLSASVGDRVTITCRASQDVGTAVAWYQQKPGKAPKLLIYWTSTRHTGVPSRFSGSGSGTDFTLTISSLQPEDFATYYCQQYRSYPFTFGQGTKLEIK
# notes: Humanized variant of S5-174; also called S5-174-H3L1
# B4: S5-174-H3 (antibody, V domains shown)
# VH: B3 VH with L20V, V48M, A68V, L70I
# VL: B3 VL
# notes: Humanized variant of S5-174; also called S5-174-H2L1
# B5: S5-174-H7 (antibody, V domains shown)
# VH: B3 VH with K74R
# VL: B3 VL
# notes: Humanized variant of S5-174; also called S5-174-H4L1
# B6: S5-174-H8 (antibody, V domains shown)
# VH: B3 VH with K74R
# VL: B3 VL with A13T, L78V, F83L
# notes: Humanized variant of S5-174; also called S5-174-H4L2
# B7: S5-174-H6 (antibody, V domains shown)
# VH: B3 VH
# VL: B3 VL with A13T, L78V, F83L
# notes: Humanized variant of S5-174; also called S5-174-H3L2
# B8: S5-G-03-H8 (antibody, V domains shown)
# VH: EVQLLQSGGGLVQPGGSLRLSCAASGFTFSTYGMSWVRQAPGKGLELVATINSNGDNTYYADSVKGRFTISRDNSKNTLYLQMNSLRAEDTAVYYCARAWPSITTVFAPYTLDYWGQGTLVTVSS
# VL: DIQMTQSPSSLSASVGDRVTITCRASSSVSSSFLHWYQQKPGKAPKLWIYSTSNLASGVPSRFSGSGSGTDYTLTISSLQPEDFATYYCQQYSGYPLTFGQGTKLEIK
# notes: Humanized variant of S5-G-03; also called S5-G03-H3L2; SG-5-03-H8
# B9: S5-G-03-H9 (antibody, V domains shown)
# VH: B8 VH
# VL: B8 VL with M4L, I21M, L79V
# notes: Humanized variant of S5-G-03; also called S5-G03-H3L3
# B10: S5-G-03-H4 (antibody, V domains shown)
# VH: B8 VH with Q6E
# VL: B8 VL with W48L, Y72F
# notes: Humanized variant of S5-G-03; also called S5-G03-H2L1
# B11: S5-G-03-H7 (antibody, V domains shown)
# VH: B8 VH
# VL: B8 VL with W48L, Y72F
# notes: Humanized variant of S5-G-03; also called S5-G03-H3L1
# B12: S5-G-03-H5 (antibody, V domains shown)
# VH: B8 VH with Q6E
# VL: B8 VL
# notes: Humanized variant of S5-G-03; also called S5-G03-H2L2; SG-5-03-H5
# Biological target: T1, Histidine-tagged human Siglec-5 …
# Assay: array SPR, antibody immobilized, His-tagged human Siglec-5 (0-500 nM) in solution; apparent affinity
# Method: The apparent binding affinities of the anti-Siglec-5 antibodies were measured by array surface plasmon resonance (SPR), according to standard techniques (Abdiche, et al. (2016) MAbs 8:264-277). Briefly, anti-Siglec-5 antibodies were immobilized on a HC 30M chip at four different densities, at antibody concentration of 10 μg/mL, 2.5 μg/mL, 0.63 μg/mL, and 0.16 μg/mL. Varying concentrations (0-500 nM) of Histidine-tagged human Siglec-5 or cynomolgus Siglec-5 (NovoProtein) were then bound to the captured anti-Siglec-5 surface (5 min injection time, 15 min dissociation time) in HBS-EP⁺/1 mg/mL BSA running buffer. Kinetic analysis was performed using Carterra software to extract association and dissociation rate constants (kₐ and kd, respectively) for each antibody. Apparent affinity constants (KD) were calculated from the ratio kd/kₐ. None of the anti-Siglec-5 antibodies bound to cynomolgus Siglec-5 protein.
Kd,koff,kon,Binder
7.1 nM,0.0001 s⁻¹,14000 M⁻¹ s⁻¹,B1
1.5 nM,0.00053 s⁻¹,350000 M⁻¹ s⁻¹,B2

# Biological target: T2, human Siglec-5
# Assay: FACS titration, CHO-S hSiglec-5 cells, anti-human IgG secondary; y-axis Fold over isotype, x-axis Antibody (nM), log scale
# Method: (§1) CHO cells were incubated with increasing concentrations of anti-Siglec-5 antibody, as indicated on the x-axis of each plot. The binding of anti-Siglec-5 antibodies to the surface of CHO cells was then measured by FACS. The y-axis provides the binding of each indicated anti-Siglec-5 antibody to the surface of CHO cells relative to hIgG1 isotype control antibodies. S5-174-H2L1 refers to antibody S5-174-H3; S5-174-H3L1 refers to antibody S5-174-H5; S5-174-H3L2 refers to antibody S5-174-H6; S5-174-H4L1 refers to antibody S5-174-H7; S5-174-H4L2 refers to antibody S5-174-H8; S5-G03-H2L1 refers to antibody S5-G-03-H4; S5-G03-H2L2 refers to antibody S5-G-03-H5; S5-G03-H3L1 refers to antibody S5-G-03-H7; S5-G03-H3L2 refers to antibody S5-G-03-H8; and S5-G03-H3L3 refers to antibody S5-G-03-H9.
# (§2) Various anti-Siglec-5 antibodies of the present disclosure were evaluated for their ability to bind to CHO cells which were stably transfected with human Siglec-5 (CHO-S5) or human Siglec-14 (CHO-S14). Cells were incubated with various dilutions of anti-Siglec-5 antibodies for 30 minutes on ice in the dark, followed by a 30-minute incubation with a fluorescently conjugated anti-human IgG secondary antibody. Cells were then washed twice in FACS buffer (PBS+2% FBS, 2 mM EDTA), and flow cytometry was performed on a BD FACS Canto. Data were analyzed using FlowJo software (Ashland, Oreg.). In FIG. 9, hIgG1 refers to isotype control antibodies; S5-174-H2L1 refers to antibody S5-174-H3; S5-174-H3L1 refers to antibody S5-174-H5; S5-174-H3L2 refers to antibody S5-174-H6; S5-174-H4L1 refers to antibody S5-174-H7; S5-174-H4L2 refers to antibody S5-174-H8; S5-G03-H2L1 refers to antibody S5-G-03-H4; S5-G03-H2L2 refers to antibody S5-G-03-H5; S5-G03-H3L1 refers to antibody S5-G-03-H7; S5-G03-H3L2 refers to antibody S5-G-03-H8; and S5-G03-H3L3 refers to antibody S5-G-03-H9.
row,binding result,Binder
1,binds,B3
2,binds,B4
3,binds,B5
4,binds,B6
5,binds,B7
6,binds,B8
7,binds,B9
8,binds,B10
9,binds,B11
10,binds,B12

# Biological target: T3, human Siglec-14
# Assay: FACS titration, CHO-S hSiglec-14 cells, anti-human IgG secondary; y-axis Fold over isotype, x-axis Antibody (nM), log scale; the same flat line on CHO-S Parental cells
# Method: as §1, §2
row,Binder,binding result
1,B3,no binding (tested: last point between 1 and 10 nM)
2,B4,no binding (tested: last point between 1 and 10 nM)
3,B5,no binding (tested: last point between 1 and 10 nM)
4,B6,no binding (tested: last point between 1 and 10 nM)
5,B7,no binding (tested: last point between 1 and 10 nM)
6,B1,no binding (tested: last point between 1 and 10 nM)
7,B8,no binding (tested: last point between 1 and 10 nM)
8,B9,no binding (tested: last point between 1 and 10 nM)
9,B10,no binding (tested: last point between 1 and 10 nM)
10,B11,no binding (tested: last point between 1 and 10 nM)
11,B12,no binding (tested: last point between 1 and 10 nM)

# Biological target: T3, human Siglec-14
# Assay: FACS, CHO cells stably transfected with human Siglec-14 (CHO-S14), fluorescent secondary antibody; y-axis Binding (Fold over background); antibody concentration not shown
# Method: The anti-Siglec-5 antibodies were evaluated for their ability to bind to CHO cells which were stably transfected with human Siglec-5 (CHO-S5) or human Siglec-14 (CHO-S14). The anti-Siglec-5 antibodies were also evaluated for their ability to bind to primary human neutrophils. Cells were incubated with various dilutions of the anti-Siglec-5 antibodies for 30 minutes on ice in the dark, followed by a 30-minute incubation with a fluorescently-conjugated anti-human IgG secondary antibody. Cells were washed twice in FACS buffer (PBS+2% FBS, 2 mM EDTA), and flow cytometry was performed on a BD FACS Canto. Data were analyzed using FlowJo software (Ashland, Oreg.). In the figures, “hIgG1” and “mIgG1” refer to isotype control antibodies, and “S5/14 1A5” refers to a commercially available antibody that binds both Siglec-5 and Siglec-14 (BioLegend, clone 1A5).
row,binding result,Binder
1,no binding,B2
